Assay [1] addresses erythrocytes infected with P. falciparum field isolate 10936. In words: flow cytometry, staining of IEs. On the technique in general: Flow cytometry measures light scatter and fluorescence of single cells or particles in a stream.
The target of assay [2] is erythrocytes infected with P. falciparum field isolate 10975. As to the kind of experiment: flow cytometry, staining of IEs.
The target in assay [3] is erythrocytes infected with P. falciparum field isolate 11014. As to the kind of experiment: flow cytometry, staining of IEs.
The target of assay [4] is erythrocytes infected with P. falciparum field isolate 11019. As to the kind of experiment: flow cytometry, staining of IEs.
The target in assay [5] is erythrocytes infected with P. falciparum field isolate 9106. In words: flow cytometry, staining of IEs.
In assay [6] the target is erythrocytes infected with P. falciparum field isolate 9215. In words: flow cytometry, staining of IEs.
Assay [7] has as its target erythrocytes infected with P. falciparum field isolate 9605. In words: flow cytometry, staining of IEs.
Assay [8] concerns the target erythrocytes infected with P. falciparum field isolate 9775. In words: flow cytometry, staining of IEs.
Another assay addresses T1, RIFIN PF3D7_1400600 (Plasmodium falciparum).
T1 construct: also called specific RIFIN
T1 chain: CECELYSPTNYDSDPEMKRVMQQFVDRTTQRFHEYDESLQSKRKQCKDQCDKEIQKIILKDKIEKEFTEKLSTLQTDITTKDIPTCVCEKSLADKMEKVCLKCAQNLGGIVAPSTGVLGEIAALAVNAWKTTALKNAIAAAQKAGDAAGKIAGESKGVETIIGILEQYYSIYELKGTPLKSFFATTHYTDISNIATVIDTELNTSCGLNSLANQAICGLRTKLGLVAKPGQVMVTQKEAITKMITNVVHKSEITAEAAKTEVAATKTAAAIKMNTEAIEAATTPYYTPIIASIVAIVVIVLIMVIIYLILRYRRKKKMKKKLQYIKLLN
In words: immunoprecipitation with MGD21, LC-MS.

A value given as a limit tells only on which side of the number the result lay.

The values below come from patent publication US20180186897A1 (INSTITUTE FOR RESEARCH IN BIOMEDICINE, published 2018).

B1: MGC34 (antibody)
VH: EVQLVESGGGLVQPGGSLRLSCEASGFTFSSYWMSWVRQAPGKGLEWVANINQDGSQKDYVDSVKGRFTISRDTAKNSLYLQMNSLRAEDTAVYYCARERLCTDDSHMHGEEDLPRPSISAEPGTVIPLGSHVTFVCRGPVGIHTFRLERESRSLYTETEDVTQVSPSESEARFRIESVTEGNAGLYRCVYYKPPKWSEQSDYLELLVKGEDVTRALFTHCGGDGKESDYHMDVWGKGTTVTVSS
VL: QTVVTQEPSLTVSPGGTVTLTCASSTGAVTSGYYPSWFHQKPGQPVRALIYSTSKTHSWTPARFSGSLLGGKAALTLSNVQPEDEADYYCLLYYGGPQPWVFGGGTKLTVQ
Turning to B1, the % parasite recognition in assay [1] was 11.3%; in assay [2] it was 15.2%; in [3], 11.4%; in [4] it was 34.1%; in [5] it was 6.8%; in [6], 27.1%. Moreover, the % parasite recognition was 23.7% in assay [7] and 17.5% in assay [8].

B2: MGC33 (antibody)
VH: EVHLVESGGGLVQPGGSLRLSCEASGFTFSSYWMTWVRQAPGKGLEWVANINQDGSERYYVDSVKGRFTISRDTVKNSLYLQMNNLRAEDTAVYYCARQRFCSDGSLFHGEDLPRPTISAETGTVISLGSHVTFVCRGPLGVQTFRLERESRSRYSETEDVSQVGPSESEARFRIDSVSEGNAGLYRCIYYKPPKWSEQSDYLELRVKGEDVTWALLTYCGGDRDESDYYMDVWGKGTTVTVSS
VL: QTVVTQEPSLTVSPGGTVTLTCASSTGSVTSGSFPNWFQQTPGQAPRSLIYSTTKKHSWTPARFSGSLLGGKAALTVSDTQPEDEAEYYCLLYCGGGQPWVFGGGTKLTVQ
As to B2, the % parasite recognition in assay [1] was determined as 3.6%; in [2], 11.5%; in [3] it was 2.9%; in assay [4], 23.5%; in assay [5], 7.5%; in assay [6] it was 11.5%. Further, the % parasite recognition in assay [7] turned out to be 22.3%; in [8] it was 9.7%.

B3: MGC32 (antibody)
VH: EVQLVESGGGLVQPGGSLRLSCVASGFNFRKSWMGWVRQAPGKGLEWVANIREDGSESFYADSVKGRFTVSRDNAKKSLYLHINSLRAEDTAVYYCARDRFCNDDEIHRHGQEDLPRPSISAAEGTVIPLGSHVTFVCRGPVGVQTFRLEKDSRSIYNDTENVSQPSPSESEARFRIDSVSEGNAGLYRCVYYKAPKWSAQSDYLELLVKGQEVTWALFTSCGGDGEEPDYDMDVRGKGTTVTVSS
VL: DILMTQSPDSLAVSLGERATINCKSSQSVLYRSKNKNYLAWFQQKPGQPPKVLIYSTSTRASGVPDRFTGSGSGTDFTLTISSLQAEDVAVYYCLQYYITPYTFGQGTKLEIK
Turning to B3, the % parasite recognition came out at 2.9% in assay [1]; 3.2% in assay [2]; 4.5% in assay [3]; 38.1% in [4]; 7.8% in assay [5]; 13.1% in assay [6]. In addition, the values for the % parasite recognition in assay [7] and in [8] were 22.9% and 7.9%, respectively.

B4: MGD21 (antibody, IgG1)
VH: EVQLVETGPGLMKTSGTLSLTCAVSGDYVNTNRRWSWVRQAPGKGLEWIGEVHQSGRTNYNPSLKSRVTISVDKSKNQFSLKVDSVTAADTAVYYCARASPLKSQRDTDLPRPSISAEPGTVIPLGSHVTFVCRGPVGVQTFRLERERNYLYSDTEDVSQTSPSESEARFRIDSVNAGNAGLFRCIYYKSRKWSEQSDYLELVVKGEDVTWALSQSQDDPRACPQGELPISTDIYYVDVWGNGTTVTVSS
VL: AIRMTQSPSSLSASPGDKVSITCRASQHINDSLAWFQQRPGKAPKLLIYGASNLHSGVPSRFSGTGSGTDFTLTITGLQSEDFATYFCQQCNCFPPDFGQGTRLEIK
notes: Human mAb of donor D with LAIR-1 exon+intron insert in CDRH3; also called MGD21 ANTIBODY; mAb MGD21
Consider B4, for which the “log2 fold change (enrichment in MGD21 immunoprecipitates of 3D7-MGD21+ against 3D7-MGD21- IEs)” value with RIFIN PF3D7_1400600 was more than 2 log2 fold change.
